Positions count from the first letter of the chain named. Values belong to the binder of their own block, whether it stands above or below them.
Key:
[1] = biological target: T1, recombinant human His-laminin-α4 (R&D Systems) (human, UniProt Q16363-2 826-1816, limits assumed); experiment: SPR (Biacore T200); Fab or captured-IgG format not given
T1 construct: range 826-end (only the start, Q826, is stated); Bought protein; also called Human LAMA4; human His-laminin-α4 fragment starting at Q826; not shown: 6x His tag
T1 sequence (looked up): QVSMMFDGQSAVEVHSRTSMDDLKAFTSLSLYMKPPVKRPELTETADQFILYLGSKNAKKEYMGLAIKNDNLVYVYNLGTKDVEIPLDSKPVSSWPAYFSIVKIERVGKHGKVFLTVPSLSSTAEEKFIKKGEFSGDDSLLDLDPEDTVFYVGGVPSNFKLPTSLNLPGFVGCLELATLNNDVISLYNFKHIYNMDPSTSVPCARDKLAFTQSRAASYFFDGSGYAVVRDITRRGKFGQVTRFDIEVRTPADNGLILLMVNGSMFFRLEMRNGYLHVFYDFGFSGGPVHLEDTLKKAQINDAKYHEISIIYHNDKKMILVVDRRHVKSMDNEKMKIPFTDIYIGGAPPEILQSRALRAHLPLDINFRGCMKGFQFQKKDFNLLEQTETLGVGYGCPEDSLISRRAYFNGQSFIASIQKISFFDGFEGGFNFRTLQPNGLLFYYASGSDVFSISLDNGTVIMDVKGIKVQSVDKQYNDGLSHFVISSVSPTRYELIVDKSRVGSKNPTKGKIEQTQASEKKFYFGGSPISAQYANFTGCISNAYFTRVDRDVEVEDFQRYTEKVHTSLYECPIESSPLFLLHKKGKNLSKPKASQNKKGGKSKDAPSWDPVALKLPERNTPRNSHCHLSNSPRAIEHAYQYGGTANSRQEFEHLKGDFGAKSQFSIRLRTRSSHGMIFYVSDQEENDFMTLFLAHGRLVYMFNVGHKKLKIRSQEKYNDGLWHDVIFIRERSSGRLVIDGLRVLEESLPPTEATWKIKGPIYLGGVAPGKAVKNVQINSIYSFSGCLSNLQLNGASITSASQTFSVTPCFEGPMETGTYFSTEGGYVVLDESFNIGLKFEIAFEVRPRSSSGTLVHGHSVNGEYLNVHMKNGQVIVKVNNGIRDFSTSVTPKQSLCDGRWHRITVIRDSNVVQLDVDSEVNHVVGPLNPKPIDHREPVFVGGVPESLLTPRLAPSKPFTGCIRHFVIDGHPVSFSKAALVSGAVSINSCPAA

[2] = biological target: T2, recombinant mouse His-laminin-α4 (R&D Systems) (mouse, UniProt P97927 826-1816, limits assumed); experiment: as above
T2 construct: range 826-end (only the start, Q826, is stated); Bought protein; also called Murine LAMA4; not shown: 6x His tag
T2 sequence (looked up): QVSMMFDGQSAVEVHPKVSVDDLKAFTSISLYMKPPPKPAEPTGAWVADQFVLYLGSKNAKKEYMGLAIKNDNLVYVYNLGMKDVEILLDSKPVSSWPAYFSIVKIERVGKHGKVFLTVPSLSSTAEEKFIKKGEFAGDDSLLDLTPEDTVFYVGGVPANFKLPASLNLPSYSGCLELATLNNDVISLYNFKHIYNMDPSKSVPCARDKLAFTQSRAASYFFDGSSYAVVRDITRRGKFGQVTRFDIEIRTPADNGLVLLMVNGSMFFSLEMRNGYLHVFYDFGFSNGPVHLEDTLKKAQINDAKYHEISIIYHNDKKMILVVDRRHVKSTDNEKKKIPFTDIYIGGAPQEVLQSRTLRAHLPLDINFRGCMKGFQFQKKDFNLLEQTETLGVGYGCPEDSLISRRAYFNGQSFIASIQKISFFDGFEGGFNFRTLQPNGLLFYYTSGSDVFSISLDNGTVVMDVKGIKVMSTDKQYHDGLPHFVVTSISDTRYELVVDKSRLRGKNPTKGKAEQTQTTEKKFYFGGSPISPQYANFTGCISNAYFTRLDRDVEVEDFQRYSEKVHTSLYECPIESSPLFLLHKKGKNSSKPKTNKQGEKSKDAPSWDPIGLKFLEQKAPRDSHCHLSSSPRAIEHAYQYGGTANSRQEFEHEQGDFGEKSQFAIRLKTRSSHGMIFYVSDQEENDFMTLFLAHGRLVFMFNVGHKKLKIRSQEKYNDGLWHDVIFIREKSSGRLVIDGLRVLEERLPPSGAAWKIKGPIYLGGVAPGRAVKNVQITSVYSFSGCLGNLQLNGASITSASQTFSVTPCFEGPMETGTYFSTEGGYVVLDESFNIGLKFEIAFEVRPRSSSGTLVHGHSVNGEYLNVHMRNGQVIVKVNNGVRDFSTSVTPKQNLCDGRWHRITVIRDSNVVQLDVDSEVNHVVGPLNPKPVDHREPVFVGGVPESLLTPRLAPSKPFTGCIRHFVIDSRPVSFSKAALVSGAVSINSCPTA

[3] = biological target: T3, human LAMA4 LG1-3 fragment displayed on 293 cells (pDisplay) (human, UniProt Q16363 830-1430, limits assumed); experiment: flow cytometry on 293 cells displaying LAMA4 fragments (pDisplay)
T3 sequence: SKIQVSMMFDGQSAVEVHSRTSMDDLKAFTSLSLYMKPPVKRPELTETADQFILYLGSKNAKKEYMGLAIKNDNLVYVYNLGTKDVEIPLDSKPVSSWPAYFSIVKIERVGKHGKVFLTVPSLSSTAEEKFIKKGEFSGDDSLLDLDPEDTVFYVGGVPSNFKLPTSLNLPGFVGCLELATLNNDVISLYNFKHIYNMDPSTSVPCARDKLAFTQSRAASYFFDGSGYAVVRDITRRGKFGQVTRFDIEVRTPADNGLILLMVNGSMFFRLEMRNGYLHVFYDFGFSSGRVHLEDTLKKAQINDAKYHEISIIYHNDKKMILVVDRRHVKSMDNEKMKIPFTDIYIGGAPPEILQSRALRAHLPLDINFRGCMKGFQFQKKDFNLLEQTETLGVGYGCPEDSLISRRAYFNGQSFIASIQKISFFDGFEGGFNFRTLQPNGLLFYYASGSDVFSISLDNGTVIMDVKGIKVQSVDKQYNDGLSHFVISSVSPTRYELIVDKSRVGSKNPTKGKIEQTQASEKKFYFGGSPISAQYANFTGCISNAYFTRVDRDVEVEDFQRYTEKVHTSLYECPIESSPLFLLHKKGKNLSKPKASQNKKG
Description: Monoclonal antibodies against the LG4-5 modules of the G domain of LAMA4 were generated as described in Materials and Methods. The specific binding between the monoclonal antibodies and the LG4-5 modules of the G domain of LAMA4 was confirmed by assessing the monoclonal antibodies' ability to stain LAMA4-fragment-displaying human embryonic kidney 293 cells by flow cytometry. Fluorescent signal was assessed via flow cytometric analyses and plotted as mean fluorescence intensity (MFI) as shown in FIG. 1. A LG1-3-specific LAMA4 antibody was able to bind 293 cells displaying LG1-5 and LG1-3, but not LG4-5 of the LAMA4 protein. Conversely, clones 6C12, 13G10, and 15F7 were able to specifically bind 293 cells displaying LG1-5 and LG4-5, but not LG1-3.
Human LAMA4 G-domains 1-5 and variants were cloned into pDisplay expression construct (Life Technologies) and transiently transfected into 293 cells using standard procedures. Anti-LAMA4 antibodies were incubated with cells for 30 min at 4° C. and followed by anti-mouse-650 for 30 minutes at 4° C. Cells were analyzed for anti-laminin binding by flow cytometry using standard procedures.

[4] = biological target: laminin 411 (LAMA4 in complex with gamma1 and beta1 chains); experiment: cell-based or functional assay
[5] = biological target: recombinant LG4-5 of LAMA4 coated on ELISA plates; experiment: cell-based or functional assay

Kd [1]: 0.684 nM
koff [1]: 0.000781 s⁻¹
kon [1]: 1.14e+06 M⁻¹ s⁻¹
Kd [2]: 0.627 nM
koff [2]: 0.000658 s⁻¹
kon [2]: 1.05e+06 M⁻¹ s⁻¹
binding result [3]: no binding
inhibition of laminin-411-induced pAkt activation (pAkt/Akt ratio by immunoblot, WM266.4 cells; 20 ug/ml 15F7, 10 ug/ml laminin 411) [4]: ~50%
inhibition of LAMA4-mediated WM-266-4 human melanoma cell adhesion (antibody at 20 ug/ml) [5]: ≥ 35%
B1: mouse monoclonal antibody 15F7 (antibody, V domains shown)
VH: QVQLQQSGTELARPGAAVKLSCKASGYTFTSYGLSWVKQRAGQGLEWIGEIFPRSGNTYYNEKFKGKATLTADKSSSTAYMELRSLTSEDSAVYFCARGVRSPGAMDYWGQGTSVTVSS
VL: DIQMTQSSSSFSVSLGDRVTITCKASEDIYNRLAWYQQKPGNAPRLLISGATSLETGVPSRFSGSGSGKDYTLSITSLQTEDVATYYCQQYWSIPYTFGGGTNLEIKR
notes: Mouse hybridoma antibody; Mouse IgG1 is used as its control; also called m15F7; LG4-5-specific antibody 15F7

Kd [1]: 24.4 nM
koff [1]: 0.0074 s⁻¹
kon [1]: 302000 M⁻¹ s⁻¹
Kd [2]: 11.9 nM
koff [2]: 0.00449 s⁻¹
kon [2]: 378000 M⁻¹ s⁻¹
binding result [3]: no binding
inhibition of LAMA4-mediated WM-266-4 human melanoma cell adhesion (antibody at 20 ug/ml) [5]: ≥ 35%
B2: mouse monoclonal antibody 13G10 (antibody, V domains shown)
VH: QVQLQQSGAELARPGASVKLSCKASGYTFTNYGISWVKQRTGQGLEWIGAIYPRSGNTYYNEKFKGKATLTADKSSSTAYMELRSLTSEDSAVYFCARERDYGSSYALDYWGQGTSVTVSS
VL: B1 VL with S63T, I94P, Y96R, N103K

Kd [1]: 3.11 nM
koff [1]: 0.00102 s⁻¹
kon [1]: 328000 M⁻¹ s⁻¹
Kd [2]: 2.38 nM
koff [2]: 0.00111 s⁻¹
kon [2]: 469000 M⁻¹ s⁻¹
binding result [3]: no binding
inhibition of LAMA4-mediated WM-266-4 human melanoma cell adhesion (antibody at 20 ug/ml) [5]: ≥ 35%
B3: mouse monoclonal antibody 6C12 (antibody, V domains shown)
VH: QVQLQQPGAELVKPGASVKLSCKASGYTFTTYWMHWVKQRPGQGPEWIGMIHPYSGAINYNEKFKSKATLTVDKSSSTAYMQLSSLTSEDSAVYYCVKQLRLLYYFDYWGQGTTLTVSS
VL: DIVMTQSPSSLTVTAGEKVTMSCKSRQSLLNSGNQKNYLTWYQQKPGQPPKVLIYWASTRESGVPDRFTGSGSGTDFTLTISSVQAEDLAVYYCQNDYSYPLTFGAGTKLELKR

From patent US20150259408A1 (PROTHENA BIOSCIENCES, published 2015)
